{"source": "patent CN114989291A", "about": "(ZHEJIANG ANWEILUO DIAGNOSTIC TECH CO LTD, dated 2022)", "binders": {"B1": {"name": "抗SARS-CoV-2全人源化单克隆抗体1B3 (antibody, V domains shown)", "VH": "VQLVESGGGVVQPGRSLRLSCAASGFTFSSYAMHWVRQAPGKGLEWVAVISYDGSNKYYADSVKGRFTISRDNSKNTLYLQMNSLRAEDTAVYYCAKVAGGPYYYDSSGRDWYFDLWGRGTLVTVSA", "VL": "DIQMTQSPSSLSASVGDRVSITCRASQSISSFLNWFQQKPGKAPNLLIYAASSLESGVPSRFSGSGSGTDFTLTISSLQPEDFATYYCQQSYSAPPTFGQGTRLEIKR"}}, "key": {"[1]": {"biological_target": "SARS-CoV-2真病毒的S蛋白 (SARS-CoV-2, UniProt P0DTC2 14-1273)", "experiment": "cell-based or functional assay"}, "[2]": {"biological_target": "T1, 全长SARS-CoV-2 S蛋白 (野生型, IVCAS 6.7512, GenBank ID: QHD43416.1) (SARS-CoV-2, UniProt P0DTC2 14-1273)", "experiment": "cell-based or functional assay"}, "[3]": {"biological_target": "重组的RBD抗原 (SARS-CoV-2 Spike糖蛋白的RBD区域) (SARS-CoV-2, UniProt P0DTC2 319-541)"}, "[4]": {"biological_target": "T1, 全长SARS-CoV-2 S蛋白 (野生型, IVCAS 6.7512, …)", "experiment": "cell-based or functional assay", "remark": "listed apart in the source"}}, "note": "Where “and” joins values, the source holds several entries; their conditions need not be identical. Identical values can stand only once. Like-named read-outs stand apart in the source and are kept apart here.", "data": [{"binder": "B1", "values": [{"measurement": "EC50, 真病毒感染的细胞模型中和活性 (Vero E6, 结晶紫细胞活率)", "setting": "[1]", "value": "16.4 μg/ml and 109 nM"}, {"measurement": "EC50, 假病毒细胞模型中和活性 (luciferase, ACE2-293T细胞)", "setting": "[2]", "value": 25.6, "unit": "nM"}, {"measurement": "EC50", "setting": "[3]", "value": 0.0134, "unit": "µg/mL"}, {"measurement": "EC50, 假病毒细胞模型中和活性 (luciferase, ACE2-293T细胞)", "setting": "[4]", "value": 3.86, "unit": "µg/mL"}]}]}
